The record followed here is patent US20150216972A1 (SAMSUNG ELECTRONICS, published 2015).

Test [1] has as its target T1, human c-Met/Fc fusion protein (R&D Systems) (human, UniProt P08581 25-932).
T1 construct: Bought reagent; also called human c-Met/Fc protein; not shown: Fc part of the bought fusion
As to the kind of experiment: ELISA, human c-Met/Fc coated at 2 ug/mL, hybridoma culture supernatant. As for the experimental part: Human c-Met/Fc fusion protein was seeded in an amount of 50 μL (2 μg/mL)/well to microtiter plates and allowed to adhere to the surface of each well. The antibody that remained unbound was removed by washing.
The hybridoma cell culture obtained in Reference Example 1.1.2 was added in an amount of 50 μL to each well of the plates and incubated for 1 hour. The cells remaining unreacted were washed out with a sufficient amount of Tris-buffered saline and Tween 20 (TBST). Goat anti-mouse IgG-horseradish peroxidase (HRP) was added to the plates and incubated for 1 hour at room temperature. The plates were washed with a sufficient amount of TBST, followed by reacting the peroxidase with a substrate (OPD). Absorbance at 450 nm was measured on an ELISA reader.
Background: In an ELISA, binding on a coated surface is turned into a signal by an enzyme label.

The target in test [2] is T2, EGFR (R&D Systems) (UniProt P00533 25-645, limits assumed).
T2 construct: also called epidermal growth factor receptor
Briefly: SPR, Biacore T100. In general terms: Surface plasmon resonance follows binding to a sensor surface in real time, without labels.

T1 sequence (P08581 25-932 limits assumed): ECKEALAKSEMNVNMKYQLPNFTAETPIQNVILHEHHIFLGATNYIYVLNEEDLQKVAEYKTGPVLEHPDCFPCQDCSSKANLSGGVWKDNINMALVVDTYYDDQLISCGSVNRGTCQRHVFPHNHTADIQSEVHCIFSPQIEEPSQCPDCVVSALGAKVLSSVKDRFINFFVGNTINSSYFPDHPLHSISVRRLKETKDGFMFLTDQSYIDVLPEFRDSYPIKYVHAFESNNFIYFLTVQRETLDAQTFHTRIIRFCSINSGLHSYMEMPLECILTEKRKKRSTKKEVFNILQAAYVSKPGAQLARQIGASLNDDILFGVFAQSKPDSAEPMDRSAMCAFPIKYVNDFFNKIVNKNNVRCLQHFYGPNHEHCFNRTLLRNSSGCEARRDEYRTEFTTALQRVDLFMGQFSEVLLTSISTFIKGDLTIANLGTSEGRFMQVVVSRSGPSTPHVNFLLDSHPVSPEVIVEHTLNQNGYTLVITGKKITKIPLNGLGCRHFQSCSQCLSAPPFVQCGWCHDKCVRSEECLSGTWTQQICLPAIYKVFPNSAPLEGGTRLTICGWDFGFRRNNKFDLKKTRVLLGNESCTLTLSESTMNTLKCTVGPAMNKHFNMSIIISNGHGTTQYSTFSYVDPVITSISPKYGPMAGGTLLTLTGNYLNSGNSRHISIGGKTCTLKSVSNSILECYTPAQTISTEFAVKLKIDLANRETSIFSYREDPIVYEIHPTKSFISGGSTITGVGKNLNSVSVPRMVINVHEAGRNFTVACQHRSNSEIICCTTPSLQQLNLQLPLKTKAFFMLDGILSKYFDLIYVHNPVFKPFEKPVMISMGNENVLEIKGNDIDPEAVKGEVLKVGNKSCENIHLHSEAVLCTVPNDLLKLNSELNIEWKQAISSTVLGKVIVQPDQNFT

B1: AbF46, mouse monoclonal antibody to c-Met (antibody, V domains shown)
VH: EVKLVESGGGLVQPGGSLRLSCATSGFTFTDYYMSWVRQPPGKALEWLGFIRNKANGYTTEYSASVKGRFTISRDNSQSILYLQMDTLRAEDSATYYCARDNWFAYWGQGTLVTVSA
VL: DILMTQSPSSLTVSAGEKVTMSCKSSQSLLASGNQNNYLAWHQQKPGRSPKMLIIWASTRVSGVPDRFIGSGSGTDFTLTINSVQAEDLAVYYCQQSYSAPLTFGAGTKLELK
notes: Screened as hybridoma culture supernatant; also called monoclonal antibody of hybridoma KCLRF-BP-00220
In the case of B1, the binding result in test [1] is “binds”.

B2: ME-19, bispecific anti-c-Met/anti-EGFR antibody (anti-c-Met antibody L3-1Y / anti-EGFR DARPin conjugate) (bispecific antibody, human IgG2, kappa)
heavy: EVQLVESGGGLVQPGGSLRLSCAASGFTFTDYYMSWVRQAPGKGLEWLGFIRNKANGYTTEYSASVKGRFTISRDNSKNTLYLQMNSLRAEDTAVYYCARDNWFAYWGQGTLVTVSSASTKGPSVFPLAPCSRSTSESTAALGCLVKDYFPEPVTVSWNSGALTSGVHTFPAVLQSSGLYSLSSVVTVPSSNFGTQTYTCNVDHKPSNTKVDKTVERKCCVECPPCPAPPVAGPSVFLFPPKPKDTLMISRTPEVTCVVVDVSHEDPEVQFNWYVDGVEVHNAKTKPREEQFNSTFRVVSVLTVVHQDWLNGKEYKCKVSNKGLPAPIEKTISKTKGQPREPQVYTLPPSREEMTKNQVSLTCLVKGFYPSDIAVEWESNGQPENNYKTTPPMLDSDGSFFLYSKLTVDKSRWQQGNVFSCSVMHEALHNHYTQKSLSLSPGKGGGGSGGGGSDLGKKLLEAARAGQDDEVRILMANGADVNADDTWGWTPLHLAAYQGHLEIVEVLLKNGADVNAYDYIGWTPLHLAADGHLEIVEVLLKNGADVNASDYIGDTPLHLAAHNGHLEIVEVLLKHGADVNAQDKFGKTAFDISIDNGNEDLAEILQ
light: DIQMTQSPSSLSASVGDRVTITCKSSQSLLASGNQNNYLAWYQQKPGKAPKMLIIWASTRVSGVPSRFSGSGSGTDFTLTISSLQPEDFATYYCQQSYSRPYTFGQGTKVEIKRTVAAPSVFIFPPSDEQLKSGTASVVCLLNNFYPREAKVQWKVDNALQSGNSQESVTEQDSKDSTYSLSSTLTLSKADYEKHKVYACEVTHQGLSSPVTKSFNRGEC
notes: also called c-Met/EGFR bsAb
For the molecule B2, the Kd in test [2] is approximately 350 pM.

Usually Kd stands for the constant that tells how readily two partners part at equilibrium. High values mean a looser complex, low ones a tighter complex.
